{"source": "paper PMC3830444", "binders": {"B1": {"name": "H6HV3_(54-66)G6 synthetic peptide (peptide)", "chain": "GDFEPIPEDAYDE", "modifications": "not checked"}}, "target": "FPR-chloromethyl ketone-thrombin (active site-inhibited α-thrombin) (human), P00734", "assay": "ELISA"}
{"binder": "B1", "values": [{"measurement": "IC50", "value": 5, "unit": "µM"}]}
